Measurements: publication doi:10.1101/2023.09.21.558905

Biological target: T1, GUN1 (132-918) (Arabidopsis thaliana, UniProt Q9SIC9 132-918)
T1 sequence: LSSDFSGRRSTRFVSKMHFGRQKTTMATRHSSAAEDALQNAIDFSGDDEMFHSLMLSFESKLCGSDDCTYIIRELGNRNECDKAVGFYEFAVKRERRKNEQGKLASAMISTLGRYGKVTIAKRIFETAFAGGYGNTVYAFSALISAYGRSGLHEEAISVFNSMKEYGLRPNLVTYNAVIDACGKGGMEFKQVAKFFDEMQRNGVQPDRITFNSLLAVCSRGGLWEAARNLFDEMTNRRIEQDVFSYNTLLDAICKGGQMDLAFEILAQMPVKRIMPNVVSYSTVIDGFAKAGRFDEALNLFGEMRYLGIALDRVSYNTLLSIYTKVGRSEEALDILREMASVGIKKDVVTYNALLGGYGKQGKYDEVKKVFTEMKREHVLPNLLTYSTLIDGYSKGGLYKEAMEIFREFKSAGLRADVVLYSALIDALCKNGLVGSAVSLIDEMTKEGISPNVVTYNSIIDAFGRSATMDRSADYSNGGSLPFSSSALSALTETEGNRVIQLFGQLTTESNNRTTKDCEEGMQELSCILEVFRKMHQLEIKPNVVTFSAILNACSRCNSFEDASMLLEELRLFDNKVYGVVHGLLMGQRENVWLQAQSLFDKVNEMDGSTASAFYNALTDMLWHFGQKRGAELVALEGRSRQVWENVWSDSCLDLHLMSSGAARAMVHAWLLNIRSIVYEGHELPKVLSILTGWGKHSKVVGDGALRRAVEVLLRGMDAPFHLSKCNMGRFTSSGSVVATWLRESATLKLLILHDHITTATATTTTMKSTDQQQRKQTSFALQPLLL
Assay: EMSA

Question: Does GGACCGAAUGAUCUAUCUCU (ssRNA) [RNA3] bind?
Answer: no binding

Question: Does GGACCUCCUUCUCUAUCUCU (ssRNA) [RNA2] bind?
Answer: no binding

Question: Does GGAAAUCCGUCGAUAUCUCU (ssRNA) [RNA1 (psbD BLRP 5'-UTR)] bind?
Answer: binds
